The values below are quoted from earlier work in article PMC12053642, “Oral PRI-002 treatment in patients with MCI or mild AD: a randomized, double-blind phase 1b trial” (Nature Communications, 2025).

The test system of this data set is early AD patients. More on the design: ADAS-cog: dose or concentration left out as unconfirmed. The settings on record: cited from earlier work; for deceleration of progression measured by CDR-SB versus placebo: over 18 months, on average. The source says: After two decades of setbacks, the United States Food and Drug Administration (USFDA) full approvals for lecanemab[1] and donanemab[2] presents the beginning of a new decade for AD patients with several more drug candidates holding promise for marketing authorisation in the foreseeable future.

Consider “donanemab: anti-amyloid therapeutic antibody [reference compound]”, for which the “deceleration of progression measured by CDR-SB versus placebo” value is “up to 36%”. In addition, where the note is “700 mg for the first 3 doses and 1400 mg thereafter i.v. every 4 weeks, after 12 weeks of treatment”, the “ADAS-Cog13 and CDR-SB” value is listed as “significant improvement”.

B1: lecanemab: anti-amyloid therapeutic antibody, claimed to preferentially target soluble Aβ protofibrils (antibody, chains of the INN, looked up, V domains shown)
VH: EVQLVESGGGLVQPGGSLRLSCSASGFTFSSFGMHWVRQAPGKGLEWVAYISSGSSTIYYGDTVKGRFTISRDNAKNSLFLQMSSLRAEDTAVYYCAREGGYYYGRSYYTMDYWGQGTTVTVSS
VL: DVVMTQSPLSLPVTPGAPASISCRSSQSIVHSNGNTYLEWYLQKPGQSPKLLIYKVSNRFSGVPDRFSGSGSGTDFTLRISRVEAEDVGIYYCFQGSHVPPTFGPGTKLEIK
As to B1, the “deceleration of progression measured by CDR-SB versus placebo” value is given as “up to 36%”. Besides, the “slowed decline on measures of cognition and function than placebo” value (early AD, at 18 months (CDR-SB, ADAS-cog14, ADCOMS, ADCS-MCI-ADL)) is 27%. In addition, for the setting “from week 12, most prominent at 6 months”, the ADAS-cog result is “symptomatic improvement”.
